From patent EP4566619A1 (AvenCell Therapeutics Inc., dated 2025)
Positions count from the first letter of the chain named.

T1: CD20 (UniProt P11836 1-297, limits assumed)
T1 sequence (looked up): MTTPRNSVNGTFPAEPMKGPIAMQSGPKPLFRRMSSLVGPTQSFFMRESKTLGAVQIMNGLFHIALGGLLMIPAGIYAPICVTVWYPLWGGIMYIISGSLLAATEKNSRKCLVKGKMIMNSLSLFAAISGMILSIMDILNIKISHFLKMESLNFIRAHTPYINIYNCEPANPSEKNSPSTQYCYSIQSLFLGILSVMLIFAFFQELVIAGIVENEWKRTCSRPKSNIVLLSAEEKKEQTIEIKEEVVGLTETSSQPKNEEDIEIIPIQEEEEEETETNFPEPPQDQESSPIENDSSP

T2: CD19 (UniProt P15391 20-556, limits assumed)
T2 sequence (looked up): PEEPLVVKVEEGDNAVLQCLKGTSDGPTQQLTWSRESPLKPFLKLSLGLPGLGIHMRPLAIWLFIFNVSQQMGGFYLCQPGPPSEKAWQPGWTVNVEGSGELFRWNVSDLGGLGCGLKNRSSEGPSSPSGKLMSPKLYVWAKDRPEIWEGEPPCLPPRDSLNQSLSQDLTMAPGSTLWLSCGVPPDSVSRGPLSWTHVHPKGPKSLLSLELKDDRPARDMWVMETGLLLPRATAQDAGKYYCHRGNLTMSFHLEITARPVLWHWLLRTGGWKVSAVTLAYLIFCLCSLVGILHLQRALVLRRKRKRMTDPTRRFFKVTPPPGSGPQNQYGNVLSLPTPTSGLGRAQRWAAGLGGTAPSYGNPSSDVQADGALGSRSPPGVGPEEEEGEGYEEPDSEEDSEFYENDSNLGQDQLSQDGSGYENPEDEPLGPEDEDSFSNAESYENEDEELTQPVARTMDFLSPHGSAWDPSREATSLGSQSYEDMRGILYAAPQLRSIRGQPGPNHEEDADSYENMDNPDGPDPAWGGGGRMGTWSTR

B1: R-TM-19/20_2 (other)
chain 1: not shown
chain 2: GQVQLVQSGAEVKKPGASVKVSCKASGYTFTHYYIYWVRQAPGQGLEWMGGVNPSNGGTHFNEKFKSRVTMTRDTSISTAYMELSRLRSDDTAVYYCARSEYDYGLGFAYWGQGTLVTVSSASTKGPSVFPLAPSSKSTSGGTAALGCLVKDYFPEPVTVSWNSGALTSGVHTFPAVLQSSGLYSLSSVVTVPSSSLGTQTYICNVNHKPSNTKVDKKVEPKSCDKTHTCPPCPAPPVAGPSVFLFPPKPKDTLMISRTPEVTCVVVDVSHEDPEVKFNWYVDGVEVHNAKTKPREEQYNSTYRVVSVLTVLHQDWLNGKEYKCKVSNKGLPSSIEKTISKAKGQPREPQVYTLPPSRDELTKNQVSLWCLVKGFYPSDIAVEWESNGQPENNYKTTPPVLDSDGSFFLYSKLTVDKSRWQQGNVFSCSVMHEALHNHYTQKSLSLSPGK
chain 3: GQVQLVESGGGLVQPGGSLRLSCAASGRTFSNYNMGWFRQAPGQGLEFVAAIDWSGGSPYYADSVKGRFTISRDNSKNTLYLQMNSLRAEDTAVYYCAAPLSYGSTWLADYWGQGTLVTVSSEPKSCDKTHTCPPCPAPPVAGPSVFLFPPKPKDTLMISRTPEVTCVVVDVSHEDPEVKFNWYVDGVEVHNAKTKPREEQYNSTYRVVSVLTVLHQDWLNGKEYKCKVSNKGLPSSIEKTISKAKGQPREPQVYTLPPSRDELTKNQVSLSCAVKGFYPSDIAVEWESNGQPENNYKTTPPVLDSDGSFFLVSKLTVDKSRWQQGNVFSCSVMHEALHNHYTQKSLSLSPGK
notes: also called R-TM 19/20_02
B2: R-TM-19/20_15 (other)
chain 1: not shown
chain 2: B1 chain 2
chain 3: GQVQLVESGGGLVQPGGSLRLSCAASGRTFSNYNMGWFRQAPGQGLEFVAAIDWSGGSPYYADSVKGRFTISRDNSKNTLYLQMNSLRAEDTAVYYCAAPLSYGSTWLADYWGQGTLVTVSSGGGGSGGGGSQVQLVESGGGLVQPGGSLRLSCAASGRTFSNYNMGWFRQAPGQGLEFVAAIDWSGGSPYYADSVKGRFTISRDNSKNTLYLQMNSLRAEDTAVYYCAAPLSYGSTWLADYWGQGTLVTVSSEPKSCDKTHTCPPCPAPPVAGPSVFLFPPKPKDTLMISRTPEVTCVVVDVSHEDPEVKFNWYVDGVEVHNAKTKPREEQYNSTYRVVSVLTVLHQDWLNGKEYKCKVSNKGLPSSIEKTISKAKGQPREPQVYTLPPSRDELTKNQVSLSCAVKGFYPSDIAVEWESNGQPENNYKTTPPVLDSDGSFFLVSKLTVDKSRWQQGNVFSCSVMHEALHNHYTQKSLSLSPGK
notes: Three-chain CD19/CD20 targeting module
B3: R-TM-19/20_5 (other)
chain 1: not shown
chain 2: B1 chain 2
chain 3: B2 chain 3
notes: Three-chain CD19/CD20 targeting module; also called R-TM 19/20_05
B4: R-TM-19/20_21 (other)
chain 1: not shown
chain 2: B1 chain 2
chain 3: B1 chain 3
notes: as for B2
B5: R-TM-19/20_11 (other)
chain 1: not shown
chain 2: B1 chain 2
chain 3: EVQLVESGGGLVQPGGSLRLSCAASGFSFSDFWMSWVRQAPGKGLEWVATISQAGSEKDYVDSVKGRFTISRDNAKKSLYLQMNSLRAEDTAVYYCASGVYSFDYRGQGTLVTVSSEPKSCDKTHTCPPCPAPPVAGPSVFLFPPKPKDTLMISRTPEVTCVVVDVSHEDPEVKFNWYVDGVEVHNAKTKPREEQYNSTYRVVSVLTVLHQDWLNGKEYKCKVSNKGLPSSIEKTISKAKGQPREPQVYTLPPSRDELTKNQVSLSCAVKGFYPSDIAVEWESNGQPENNYKTTPPVLDSDGSFFLVSKLTVDKSRWQQGNVFSCSVMHEALHNHYTQKSLSLSPGKGGGGSGGGGSGGGGSQVQLVESGGGLVQPGGSLRLSCAASGRTFSNYNMGWFRQAPGQGLEFVAAIDWSGGSPYYADSVKGRFTISRDNSKNTLYLQMNSLRAEDTAVYYCAAPLSYGSTWLADYWGQGTLVTVSS
notes: as for B2
B6: R-TM-19/20_8 (other)
chain 1: not shown
chain 2: B1 chain 2
chain 3: GQVQLVESGGGLVQPGGSLRLSCAASGRTFSNYNMGWFRQAPGQGLEFVAAIDWSGGSPYYADSVKGRFTISRDNSKNTLYLQMNSLRAEDTAVYYCAAPLSYGSTWLADYWGQGTLVTVSSGGGGSGGGGSGGGGSEVQLVESGGGLVQPGGSLRLSCAASGFSFSDFWMSWVRQAPGKGLEWVATISQAGSEKDYVDSVKGRFTISRDNAKKSLYLQMNSLRAEDTAVYYCASGVYSFDYRGQGTLVTVSSEPKSCDKTHTCPPCPAPPVAGPSVFLFPPKPKDTLMISRTPEVTCVVVDVSHEDPEVKFNWYVDGVEVHNAKTKPREEQYNSTYRVVSVLTVLHQDWLNGKEYKCKVSNKGLPSSIEKTISKAKGQPREPQVYTLPPSRDELTKNQVSLSCAVKGFYPSDIAVEWESNGQPENNYKTTPPVLDSDGSFFLVSKLTVDKSRWQQGNVFSCSVMHEALHNHYTQKSLSLSPGK
notes: Three-chain CD19/CD20 targeting module; also called R-TM 19/20_08
B7: R-TM-19/20_3 (other)
chain 1: not shown
chain 2: B1 chain 2
chain 3: B1 chain 3 with D63A, K66R
notes: Three-chain CD19/CD20 targeting module; also called R-TM 19/20_03
B8: R-TM-19/20_23 (other)
chain 1: not shown
chain 2: B1 chain 2
chain 3: B1 chain 3 with D63A, K66R
notes: as for B2

target: T1, CD20; assay: cell-based or functional assay

First: B1
Second: B2
The “CD20 killing EC50 [pM]” value of the first is lower: 7.2 pM for the first, 10.7 pM for the second.

First: B3
Second: B4
The “CD20 killing EC50 [pM]” value of the first is lower: 9.8 pM for the first, 12.6 pM for the second.

Compared with B5, B6 is lower in “CD20 killing EC50 [pM]” value: 17.9 pM for the first, 14.2 pM for the second.

Compared with B7, B8 is lower in “CD20 killing EC50 [pM]” value: 4.3 pM for the first, 2.1 pM for the second.

target: T2, CD19; assay: cell-based or functional assay

Compared with B1, B2 is lower in “CD19 killing EC50 [pM]” value: 3.8 pM for the first, 1.2 pM for the second.

First: B3
Second: B4
The “CD19 killing EC50 [pM]” value of the first is higher: 6.2 pM for the first, 1.4 pM for the second.

Compared with B5, B6 is higher in “CD19 killing EC50 [pM]” value: 3.8 pM for the first, 7.1 pM for the second.

Compared with B7, B8 is lower in “CD19 killing EC50 [pM]” value: 7.9 pM for the first, 1 pM for the second.

target: T2, CD19; assay: cellular binding assay, flow cytometry (gMFI) on OCI-AML3-CD19 cells

Going from B1 to B2, the EC50 falls from 18.4 nM to 3.7 nM (5-fold). The second is the more potent here.

Going from B3 to B4, the EC50 falls from 14.7 nM to 2.2 nM (6.7-fold). The second is the more potent here.

First: B5
Second: B6
The EC50 of the first is 2.8-fold lower: 5.2 nM for the first, 14.8 nM for the second.

Compared with B7, B8 is 5.6-fold lower in EC50: 19 nM for the first, 3.4 nM for the second. The second is the more potent here.

target: T1, CD20; assay: cellular binding assay, flow cytometry (gMFI) on OCI-AML3-CD20 cells

B1 and B2 are within 1.5-fold of each other in EC50: 43.6 nM for the first, 45.5 nM for the second.

First: B3
Second: B4
The EC50 of the first is 2.2-fold lower: 24.1 nM for the first, 53.8 nM for the second.

Going from B5 to B6, the EC50 falls from 62 nM to 37 nM (1.7-fold).

B7 and B8 are within 1.5-fold of each other in EC50: 29.2 nM for the first, 23 nM for the second.
